Reference: the RNAGym collection of RNA variant scans (doi:10.7554/elife.90254)

B1: OR4K15 (parent)
chain: GUUAACGGUCAUAGGCCAUGGAAACUAGGAGCACCAUUUCGCUGCCAGUGAAGAAAUGAACAAAGAAAAUCUGGGCCAGGCAGGCAUCAAAAGAAAUAGUCUUGCGCUCAACCAGAAAGUCUGUAAUCAUUUUAAGGGUA

Variants of: B1
Experiment: self-cleavage, relative activity (ratio to wild type); higher = more cleavage; in vitro, sequencing; the parent is a self-cleaving ribozyme

Point of comparison: A55G U132A, self-cleavage 1.61. Against it:
- U38C A47C — higher, 1.99
- U103C A116G — lower, 0.5
- U3A A55C — lower, 1.31
- A98G U102C — higher, 2.44
- A91G A94U — lower, 1.02
- G115A U120C — lower, 0.03
- G44C A82U — lower, 0.27
- A55G U70C — lower, 0.29
- A13U A60G — lower, 0.32
- U39A A82U — lower, 0.28
- A66G A94G — lower, 1.55
- A11U A52G — lower, 1.25
- A36G A90G — lower, 1.54
- A18U U102C — lower, 0.98
- A5G U70C — lower, 0.82
- A64U A111G — lower, 0.04
- U19A A114G — lower, 0.55
- A63U A126G — lower, 1.31
- U122C A129U — lower, 0.49
- A55U A111G — lower, 0.02
- A67G A86G — lower, 1.22
- A24G A114C — lower, 0.05
- A30G U38C — higher, 1.62
- A78G U122A — lower, 0.13
- U39C C77A — lower, 0.77
- G7A A92U — higher, 1.72
- A54U A98G — lower, 0.2
- A51G U124G — lower, 1.05
- A95G G123A — lower, 1.22
- A82U U97C — lower, 0.06
- A22U A68G — lower, 0.93
- U87C A118U — lower, 0.9
- G20A U102A — lower, 0.58
- A33G U130C — lower, 0.66
- A4G U12C — lower, 0.58
- U122C A140U — lower, 1.13
- U9A A114U — lower, 0.07
- A30U A59G — lower, 0.34
- A66G A98G — lower, 0.38
- A5U U102C — higher, 1.69
- A86G U133C — higher, 2.05
- A55G A90U — higher, 2.14
- U19C G74C — lower, 0.18
- A54U U103C — lower, 1.26
- A129G A140U — higher, 2.17
- U12A U43C — lower, 0.49
- A52G C105A — lower, 0.02
- A82C A89G — lower, 0.16
- C105U U122C — lower, 0.11
- U19C U102C — higher, 2.32
- U3A A4G — lower, 1.4
- A78U U133A — lower, 0.72
- U43C U139A — lower, 1.3
- U102C U139A — higher, 2.11
- A55G A62U — lower, 1.41
- G53A U130C — higher, 1.96
- U2C A60G — lower, 1.02
- G14C A55G — lower, 1.34
- A30C U120C — lower, 0.69
- A95G U100C — higher, 2.52
- A18U U49A — higher, 1.67
- U72A A98U — lower, 0.33
- A23U A51C — lower, 1.55
- A62U A118U — lower, 0.82
- A69G A126G — lower, 0.55
- U70C U87G — lower, 0.04
- A62G C77U — higher, 2.24
- U39A A78U — lower, 0.44
- U108A A140C — lower, 0.04
- A62U A125G — lower, 0.71
- A36U G106A — lower, 0.02
- A90G U102C — higher, 1.97
- U26C U102C — higher, 1.65
- A11G U127A — lower, 1.17
- U19G A140G — lower, 1.51
- A54G A92G — lower, 1.37
- U127G A129G — lower, 0.97
- U12C U38A — lower, 0.89
- A11C A22G — lower, 0.94
- C16A A89G — lower, 1.37
- A60U G106A — lower, 0
- A13G G137U — lower, 1.06
- A82U A86G — lower, 0.12
